For one substance, percent of Imp-L2 crosslinked results are on record in article PMC6794382.

This experiment deals with Drosophila melanogaster imaginal morphogenesis protein-late 2 protein (Imp-L2) (Drosophila melanogaster) (UniProt Q09024). Description: cross-linking; Sulfo-SDA-modified ligand (about 100 μg, 10–20 nmol) incubated with recombinant Imp-L2 (76 μg, about 3 nmol) overnight at 4°C, irradiated at 365 nm for 5 min; SDS-PAGE, western blot with anti-IGF-1, tryptic digest of the excised band and LC-MS/MS (Links, StavroX).
Chain of UniProt Q09024 (Q09024 26-267): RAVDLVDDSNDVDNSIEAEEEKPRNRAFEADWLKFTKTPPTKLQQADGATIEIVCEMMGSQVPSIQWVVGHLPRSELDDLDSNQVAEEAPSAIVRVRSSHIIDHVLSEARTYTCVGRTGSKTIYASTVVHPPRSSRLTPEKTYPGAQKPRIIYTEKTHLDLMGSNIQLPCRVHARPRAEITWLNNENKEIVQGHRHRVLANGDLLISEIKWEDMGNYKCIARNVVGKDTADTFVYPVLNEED

For “des(63-70)-IGF-1 (human IGF-1 lacking the C-terminal D domain amino acids PLKPAKSA, with an additional N-terminal Gly-1) (ligand)”, the percent of Imp-L2 crosslinked lay within 10 to 20%.
